The labels stand for the following.
B1: Flag-tagged mouse CXCR4 C-terminally fused via a TEV protease cleavage site to tTA [mouse] / Myc-tagged COMMD8 C-terminally fused to TEV protease [not stated (mouse cDNA cloned for the MSCV2.2 vectors)] (parent)
chain 1: MEPEEGTPLWRLQKLPPEQGAGLLHKIIDGFCGRAYPAHQDYHSVWNSAEWKHVLEDVTTFFKAVVGKNFSEEETLQQLNQLNSCHQEAVLKCLKSRRNEIKQALLGEIVDISCAQLQDFDWQLKLALSSDKIATLQMPLLNLHLDVKEDDKVKPYTVEMSKEELQSLISSLEAANKVVLQLK
chain 2: MEPISVSIYTSDNYSEEVGSGDYDSNKEPCFRDENVHFNRIFLPTIYFIIFLTGIVGNGLVILVMGYQKKLRSMTDKYRLHLSVADLLFVITLPFWAVDAMADWYFGKFLCKAVHIIYTVNLYSSVLILAFISLDRYLAIVHATNSQRPRKLLAEKAVYVGVWIPALLLTIPDFIFADVSQGDISQGDDRYICDRLYPDSLWMVVFQFQHIMVGLILPGIVILSCYCIIISKLSHSKGHQKRKALKTTVILILAFFACWLPYYVGISIDSFILLGVIKQGCDFESIVHKWISITEALAFFHCCLNPILYAFLGAKFKSSAQHALNSMSRGSSLKILSKGKRGGHSSVSTESESSSFHSS

One variant from paper PMC6605747 can be followed below.

In this assay the parent is B1. Briefly: Tango assay. The conditions noted are these: with Myc-tagged COMMD8 C-terminally fused to TEV protease [not stated (mouse cDNA cloned for the MSCV2.2 vectors)]; HTL cells; firefly luciferase normalized to Renilla luciferase, fold increase over unstimulated cells; read off a plot.
On to chain 2 MEPISVSIYTSDNYSEEVGSGDYDSNKEPCFRDENVHFNRIFLPTIYFIIFLTGIVGNGLVILVMGYQKKLRSMTDKYRLHLSVADLLFVITLPFWAVDAMADWYFGKFLCKAVHIIYTVNLYSSVLILAFISLDRYLAIVHATNSQRPRKLLAEKAVYVGVWIPALLLTIPDFIFADVSQGDISQGDDRYICDRLYPDSLWMVVFQFQHIMVGLILPGIVILSCYCIIISKLSHSKGHQKRKALKTTVILILAFFACWLPYYVGISIDSFILLGVIKQGCDFESIVHKWISITEALAFFHCCLNPILYAFLGAKFKSSAQHALNSMSRGSSLKILSKGKRGGHSSVSTESEAAAFHSS [chain 2 S353A S354A S355A], for which the response (fold increase) was 0.87.
